Measurements from patent US20210040189A1 (Amgen, published 2021).

T1: human DKK1 (human, UniProt O94907 32-266)
T1 sequence: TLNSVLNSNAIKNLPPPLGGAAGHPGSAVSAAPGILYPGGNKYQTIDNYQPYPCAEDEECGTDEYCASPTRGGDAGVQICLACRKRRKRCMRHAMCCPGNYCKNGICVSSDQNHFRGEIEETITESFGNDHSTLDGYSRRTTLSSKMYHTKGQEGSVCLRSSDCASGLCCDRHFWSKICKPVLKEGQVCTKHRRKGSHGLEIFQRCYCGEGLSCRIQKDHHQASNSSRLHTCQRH


Experiments:
human DKK1 [1] = target: T1, human DKK1; experiment: cell-based or functional assay
human DKK1 [2] = target: T1, human DKK1; experiment: BiaCore 2000
From the text: BiaCore allowed us to determine the kd of the selected antibodies.

Binder | TCF EC50 (human DKK1 [1]) | koff (human DKK1 [2]) | ST2 EC50 (human DKK1 [1])
2.47.1 (antibody, V domains shown, Fully human hybridoma IgG, kappa (Vk)) VH: QVQLQESGPGLVKPSQTLSLTCTVSGGSISSGGYYWSWIRQHPGKGLEWIGDIYYSGSTYYNPSLKSRVTISVDTSKNQFSLKLSSVTAADTAVYYCARDRAYGDYGGDYYYGMDVWGQGTTVTVSS VL: DIVMTQTPLSLPVTPGEPASISCRSSQSLLDSDDGDTYLDWYLQKPGQSPQLLIYTLSYRASGVPDRFSGSGSGTDFTLKISRVEAEDVGVYYCMQRIEFPFTFGPGTKVDIK | 60.7 nM | 0.00092 s⁻¹ | –
5.17.1 (antibody, V domains shown, Fully human hybridoma IgG, kappa (Vk)) VH: QVQLQESGPGLVKPSETLSLTCTVSGGSISSYYWSWIRQPPGKGLEWIGYIYYSGNTNYNPSLKSRVTISVDTSKNQFSLKLRSVTAADTAVYYCARYNWNNDLFDYWGQGTLVTVSS VL: DIQMTQSPSSLSASVGDRVTITCQASQDINNYLNWYQQKPGKAPNLLIYDASNLETGVPSRFSGSGSGTDFTFTISSLQPADIATYYCQQYDDFPLTFGGGTKVEIK | 3.48 nM | 0.000303 s⁻¹ | 8.24 nM
2.20.1 (antibody, V domains shown, Fully human hybridoma IgG, kappa (Vk)) VH: QVQLVESGGGVVQPGRSLRLSCAASGFTFSSYGMHWVRQAPGKGLEWVAVISYDGSDKYYADSVKGRFTISRDNSKNTLYLQMNSLRAEDTAVYYCARDQWGGSPAGPWGQGTLVTVSS VL: DIVMTQTPLSLSVIPGQPASISCKSSQSLLHSDGKTYLYWYLQRPGQPPQLLIYEVSNRFSGVPHRLSGSGSGTDFTLKISRVEAEDVGVYYCMQSIQVPWTFGQGTKVEIK | 10.7 nM | 0.00024 s⁻¹ | 34.7 nM
2.41.1 (antibody, V domains shown, Fully human hybridoma IgG, kappa (Vk)) VH: QVQLVESGGGVVQPGRSLRLSCAASGFTFSSYGMHWVRQAPGKGLEWVAVISYDGSDKYYADSVKGRFTISRDNSKNTLYLQMNSLRAEDTAVYYCARAGYSLYYYYGMDVWGQGTTVTVSS VL: DIVMTQTPLSLSVTPGQPASISCKSSQSLLHSDGKTYLYWYLQKPGQPPQLLIYEVSNRFSGVPDRFSGSGSGTDFTLKISRVEAEDVGVYYCMQSKQLPFTFGPGTKVDIK | 32.1 nM | 0.0013 s⁻¹ | 89.1 nM

The next lines start with the values.

TCF EC50 (human DKK1 [1]) | koff (human DKK1 [2]) | ST2 EC50 (human DKK1 [1]) | Binder
1.01 nM | 0.000181 s⁻¹ | 4.29 nM | 5.23.1 (antibody, V domains shown) VH: QVQLVESGGGVVQPGRSLRLSCAASGFTFSSYGMHWVRQAPGKGLEWVAVIWCDGSNKYYADSVKGRFTISRDSSKNTLYLQMNSLRAEDTAVYYCARGGYGSGSYEDYYYGMDVWGQGTTVTVSS VL: not shown
5.29 nM | 0.000105 s⁻¹ | 10.4 nM | 5.31.1 (antibody, V domains shown, Fully human hybridoma IgG, kappa (Vk)) VH: QVQLVESGGGVVQPGRSLRLSCAASGFTFSSYGMHWVRQAPGKGLEWVAVIWYDGRNKYYADSVKGRFTISRDNSKNTLYLQMNSLRAEDTAVYYCARGGGAVADYNYYYGMDVWGQGTTVTVSS VL: DIQVTQSPSSLSASVGDRVTITCQASQDISNYLNWYQQKPGKAPKFLIYDASNLEAGVPSRFSGSGSGTDFTFTISSLQPEDIATYYCQQYDNLPLTFGGGTKVEIK
4.53 nM | – | 10.6 nM | 5.85.1 (antibody, V domains shown) VH: EVQLVQSGAEVKKPGESLKISCKVSGYSFTTYWIGWVRQMPGKGLDWMGIIYPGDSDTRYSPSFQGQVTISADKSISTAYLQWSSLKASDTAMYYCARQGIAFDYWGQGTLVTVSS VL: QSVLTQPPSVSGAPGQRVTISCTGSSSNIGAGYDVHWYQQLPRTAPKLLIYGNSNRPSGVPDRFSDSKSGTSASLAITGLQAEDEADYYCQSYDSSLSVIFGGGTKLTVL
